Measurements reported in patent US20040137580A1.

Key:
[1] = target: PSGL-1/mIgG2b made in CHO-K1 clone C2-1-9 (with porcine α1,3GalT and C2 GnT1) (human; mouse) (UniProt Q14242); test: sandwich ELISA, fusion protein captured by goat anti-mouse IgG Fc, detected with peroxidase-conjugated lectin or anti-mouse IgG Fc
[2] = target: PSGL-1/mIgG2b made in CHO-K1 clone 5L4-1 (with porcine α1,3GalT) (human; mouse) (UniProt Q14242); test: as above
[3] = target: PSGL-1/mIgG2b made in COS7 m6 clone 5I (with porcine α1,3GalT) (human; mouse) (UniProt Q14242); test: as above
[4] = target: PSGL-1/mIgG2b made in 293T clone 14 (with porcine α1,3GalT) (human; mouse) (UniProt Q14242); test: as above
[5] = target: PSGL1/mIgG2b fusion protein produced in COS-7 m6 cells without cotransfection of the α1,3 GT cDNA (human; mouse) (UniProt Q14242); test: depletion of COS supernatant on beads, remaining fusion protein by anti-mouse IgG Fc sandwich ELISA
[6] = target: anti-pig reactive antibodies of human blood group AB serum; test: cell-based or functional assay

Question: For “peroxidase-conjugated Bandereia simplicifolia isolectin B4 (L-5391, Sigma)”, which fold increase of α-Gal epitope density (relative O.D. GSA-reactivity/anti-mouse IgG reactivity) against PSGL-1/mIgG2b made in CHO-K1 cells without the α1,3GalT [1] is on record?
Answer: 13 fold

Question: And the fold increase of α-Gal epitope density (relative O.D. GSA-reactivity/anti-mouse IgG reactivity) against PSGL-1/mIgG2b made with the α1,3GalT alone [1]?
Answer: 7.4 fold

Question: And the fold increase in the relative O.D. (GSA-reactivity/anti-mouse IgG reactivity) against PSGL-1/mIgG2b made in CHO without the α1,3GalT [2]?
Answer: 1.8 fold

Question: And the fold increase in the relative O.D. (GSA-reactivity/anti-mouse IgG reactivity) against PSGL-1/mIgG2b made in COS without the α1,3GalT [3]?
Answer: 5.3 fold

Question: What about the fold increase in the relative O.D. (GSA-reactivity/anti-mouse IgG reactivity) against PSGL-1/mIgG2b made in 293T without the α1,3GalT [4] of the same molecule?
Answer: 3.1 fold

Question: Which results are given for “goat anti-mouse IgG agarose beads (A-6531, Sigma) (antibody)”?
Answer: amount of PSGL1/mIgG2b absorbed onto 50 µl packed beads from 2 ml of supernatant [5]: 260 ng; amount of PSGL1/mIgG2b absorbed onto 50 µl packed beads from 4 ml of supernatant [5]: 290 ng; amount of PSGL1/mIgG2b absorbed onto 50 µl packed beads from 8 ml of supernatant [5]: 360 ng

B1: PSGL-1/mIgG2b made in COS7 m6 clone 5I (with porcine α1,3GalT) (Fc fusion, human, UniProt Q14242 18-320, looked up, not shown: a dimerising Fc or GST)
chain: LQLWDTWADEAEKALGPLLARDRRQATEYEYLDYDFLPETEPPEMLRNSTDTTPLTGPGTPESTTVEPAARRSTGLDAGGAVTELTTELANMGNLSTDSAAMEIQTTQPAATEAQTTQPVPTEAQTTPLAATEAQTTRLTATEAQTTPLAATEAQTTPPAATEAQTTQPTGLEAQTTAPAAMEAQTTAPAAMEAQTTPPAAMEAQTTQTTAMEAQTTAPEATEAQTTQPTATEAQTTPLAAMEALSTEPSATEALSMEPTTKRGLFIPFSVSSVTHKGIPMAASNLSVNYPVGAPDHISVKQC
modifications: α-Gal substituted glycans (COS7 m6 cells co-expressing porcine α1,3GalT)
Question: With B1 as the molecule, how does the PAEC cytotoxicity of blood group AB serum after adsorption [6] read?
Answer: 12%

Question: And the amount of adsorber needed to reduce the PAEC cytotoxicity of human AB serum to 40% of maximum, against CHO cell-made PSGL-1/mIgG2b [6]?
Answer: 16 times less

B2: PSGL-1/mIgG2b made in 293T clone 14 (with porcine α1,3GalT) (Fc fusion, human, UniProt Q14242 18-320, looked up, not shown: a dimerising Fc or GST)
chain: B1 chain
modifications: α-Gal substituted glycans (293T cells co-expressing porcine α1,3GalT)
Question: How did the PAEC cytotoxicity of blood group AB serum after adsorption [6] turn out when B2 was run?
Answer: 25%

Question: What about the amount of adsorber needed to reduce the PAEC cytotoxicity of human AB serum to 40% of maximum, against CHO cell-made PSGL-1/mIgG2b [6] of the same molecule?
Answer: 4 times less

B3: PSGL-1/mIgG2b made in CHO-K1 clone C2-1-9 (with porcine α1,3GalT and C2 GnT1) (Fc fusion, human, UniProt Q14242 18-320, looked up, not shown: a dimerising Fc or GST)
chain: B1 chain
modifications: core 2 branched O-glycans with terminal Galα1,3Gal (Hex-HexNol-HexN-Hex-Hex; NeuAc-Hex-HexNol-HexN-Hex-Hex; NeuGc-Hex-HexNol-HexN-Hex-Hex)
Question: Which amount of adsorber needed to reduce the PAEC cytotoxicity of human AB serum to 40% of maximum, against PSGL-1/mIgG2b made in CHO clone 5L4-1 [6] does the source give for B3 here?
Answer: 10 times less

B4: PSGL-1/mIgG2b made in CHO-K1 clone 5L4-1 (with porcine α1,3GalT) (Fc fusion, human, UniProt Q14242 18-320, looked up, not shown: a dimerising Fc or GST)
chain: B1 chain
modifications: glycans of CHO-K1 cells co-expressing porcine α1,3GalT
Question: How did the amount of adsorber needed to reduce the PAEC cytotoxicity of human AB serum to 40% of maximum [6] turn out when B4 was run?
Answer: 9.1 µg

Question: What about the lowest PAEC cytotoxicity of blood group AB serum reached after adsorption [6] of the same molecule?
Answer: > 36%
